Measurements taken from publication doi:10.1101/2020.12.18.423415.

Target: SARS-CoV-2 Spike protein (S protein) (SARS-CoV-2) (UniProt P0DTC2)
Assay: ELISA

Chain of recombinant fragment of human surfactant protein D (rfhSP-D) (P35247 201-375): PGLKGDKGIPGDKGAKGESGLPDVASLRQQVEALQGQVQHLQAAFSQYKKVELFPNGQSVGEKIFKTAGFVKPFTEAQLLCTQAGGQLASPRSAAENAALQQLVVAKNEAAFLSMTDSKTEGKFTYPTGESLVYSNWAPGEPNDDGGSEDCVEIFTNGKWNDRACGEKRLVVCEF

recombinant fragment of human surfactant protein D (rfhSP-D) (from UniProt P35247 201-375) (domain or fragment)
percent decrease of S protein-hACE-2 binding (rfhSP-D increased 5-fold): 50%
